The assay deals with T1, GST-Matrin-3 (human, UniProt P43243-1 1-847).
T1 construct: human Matrin-3, cDNA GenBank NM_199189, inserted downstream of the GST gene in pGEX-6P-1; also called GST-fused Matrin-3; pGEX-Matrin-3; source: E. coli BL21-CodonPlus(DE3)-RIPL, purified (Glutathione Sepharose 4B); not shown: GST, N-terminal, kept
T1 sequence (looked up): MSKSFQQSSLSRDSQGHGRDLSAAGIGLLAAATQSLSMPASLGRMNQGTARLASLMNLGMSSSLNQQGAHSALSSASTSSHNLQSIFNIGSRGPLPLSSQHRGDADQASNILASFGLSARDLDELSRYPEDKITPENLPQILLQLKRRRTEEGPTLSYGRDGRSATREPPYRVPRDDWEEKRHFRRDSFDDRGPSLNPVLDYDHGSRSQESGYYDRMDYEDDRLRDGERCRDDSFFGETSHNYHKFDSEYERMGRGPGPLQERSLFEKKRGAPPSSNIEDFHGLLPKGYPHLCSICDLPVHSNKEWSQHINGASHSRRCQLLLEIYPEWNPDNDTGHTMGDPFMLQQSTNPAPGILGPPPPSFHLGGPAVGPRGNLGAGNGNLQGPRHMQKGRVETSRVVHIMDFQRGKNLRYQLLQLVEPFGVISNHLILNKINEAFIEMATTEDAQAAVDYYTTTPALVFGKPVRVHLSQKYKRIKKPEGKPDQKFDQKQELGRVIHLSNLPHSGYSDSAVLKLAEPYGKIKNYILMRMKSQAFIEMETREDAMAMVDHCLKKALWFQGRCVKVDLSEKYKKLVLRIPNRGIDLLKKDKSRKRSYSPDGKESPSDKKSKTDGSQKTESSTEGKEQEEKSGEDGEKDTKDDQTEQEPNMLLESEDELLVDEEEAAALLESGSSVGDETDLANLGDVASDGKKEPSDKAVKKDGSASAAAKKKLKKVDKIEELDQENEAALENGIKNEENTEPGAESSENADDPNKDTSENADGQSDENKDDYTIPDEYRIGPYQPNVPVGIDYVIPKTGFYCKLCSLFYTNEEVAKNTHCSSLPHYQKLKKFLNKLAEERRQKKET
As to the kind of experiment: pull-down; purified GST-Matrin-3 (50 ng) incubated with purified MBP-fused proteins (50 ng) in Interaction Buffer (20 mM Tris pH 8.0, 137 mM NaCl, 1.5 mM MgCl2, 1 mM EGTA, 0.1% Triton X-100, 10% glycerol), 1.5 h at 4°C; captured on Glutathione Sepharose 4B; immunoblot with anti-MBP Ab. To be noted: both partners purified. (In general: In western blotting, separated proteins are transferred to a membrane and probed.)

B1: MBP-p68 (natural protein, human, UniProt P17844-1 1-614, looked up)
chain: MSGYSSDRDRGRDRGFGAPRFGGSRAGPLSGKKFGNPGEKLVKKKWNLDELPKFEKNFYQEHPDLARRTAQEVETYRRSKEITVRGHNCPKPVLNFYEANFPANVMDVIARQNFTEPTAIQAQGWPVALSGLDMVGVAQTGSGKTLSYLLPAIVHINHQPFLERGDGPICLVLAPTRELAQQVQQVAAEYCRACRLKSTCIYGGAPKGPQIRDLERGVEICIATPGRLIDFLECGKTNLRRTTYLVLDEADRMLDMGFEPQIRKIVDQIRPDRQTLMWSATWPKEVRQLAEDFLKDYIHINIGALELSANHNILQIVDVCHDVEKDEKLIRLMEEIMSEKENKTIVFVETKRRCDELTRKMRRDGWPAMGIHGDKSQQERDWVLNEFKHGKAPILIATDVASRGLDVEDVKFVINYDYPNSSEDYIHRIGRTARSTKTGTAYTFFTPNNIKQVSDLISVLREANQAINPKLLQLVEDRGSGRSRGRGGMKDDRRDRYSAGKRGGFNTFRDRENYDRGYSSLLKRDFGAKTQNGVYSAANYTNGSFGSNFVSAGIQTSFRTGNPTGTYQNGYDSTQQYGSNVPNMHNGMNQQAYAYPATAAAPMIGYPMPTGYSQ
notes: human p68 (DDX5), cDNA GenBank NM_004396, inserted downstream of the MBP gene in pMAL-x5c; also called p68/DDX5; source: E. coli BL21-CodonPlus(DE3)-RIPL, purified (Amylose resin); not shown: MBP, N-terminal, kept
Consider B1, for which the binding result was “binds”.

B2: MBP-CTCF (natural protein, human, UniProt P49711-1 1-727, looked up)
chain: MEGDAVEAIVEESETFIKGKERKTYQRRREGGQEEDACHLPQNQTDGGEVVQDVNSSVQMVMMEQLDPTLLQMKTEVMEGTVAPEAEAAVDDTQIITLQVVNMEEQPINIGELQLVQVPVPVTVPVATTSVEELQGAYENEVSKEGLAESEPMICHTLPLPEGFQVVKVGANGEVETLEQGELPPQEDPSWQKDPDYQPPAKKTKKTKKSKLRYTEEGKDVDVSVYDFEEEQQEGLLSEVNAEKVVGNMKPPKPTKIKKKGVKKTFQCELCSYTCPRRSNLDRHMKSHTDERPHKCHLCGRAFRTVTLLRNHLNTHTGTRPHKCPDCDMAFVTSGELVRHRRYKHTHEKPFKCSMCDYASVEVSKLKRHIRSHTGERPFQCSLCSYASRDTYKLKRHMRTHSGEKPYECYICHARFTQSGTMKMHILQKHTENVAKFHCPHCDTVIARKSDLGVHLRKQHSYIEQGKKCRYCDAVFHERYALIQHQKSHKNEKRFKCDQCDYACRQERHMIMHKRTHTGEKPYACSHCDKTFRQKQLLDMHFKRYHDPNFVPAAFVCSKCGKTFTRRNTMARHADNCAGPDGVEGENGGETKKSKRGRKRKMRSKKEDSSDSENAEPDLDDNEDEEEPAVEIEPEPEPQPVTPAPPPAKKRRGRPPGRTNQPKQNQPTAIIQVEDQNTGAIENIIVEVKKEPDAEPAEGEEEEAQPAATDAPNGDLTPEMILSMMDR
notes: source: E. coli BL21-CodonPlus(DE3)-RIPL, purified (Amylose resin); not shown: MBP, N-terminal, kept
For the molecule B2, the binding result is “binds”.

Source of the values: article PMC3197142, “Direct Identification of Insulator Components by Insertional Chromatin Immunoprecipitation” (PLoS ONE, 2011).
